Reference: PMC9962925, “PKD autoinhibition in trans regulates activation loop autophosphorylation in cis” (Proceedings of the National Academy of Sciences of the …, 2023)
Substitutions are numbered along the chain they refer to. Names may count otherwise. Each block holds one molecule with its values, some of them ahead of it.

Legend:
[1] = biological target: PKD1 kinase domain construct, unphosphorylated (PKD1^KD 0P), wild type (human) (UniProt Q15139); experiment: SEC; analytical size exclusion chromatography of purified proteins (Fig. 1C); elution volumes calibrated to monomer and dimer masses by SEC-MALS
[2] = biological target: PKD1 kinase domain construct, unphosphorylated (PKD1^KD 0P), wild type (human) (UniProt Q15139); experiment: SEC-MALS; 60 uL of purified protein at 2 mg/mL on an S200 10/300 column, room temperature, 20 mM HEPES pH 7.4, 150 mM KCl, 1 mM EDTA, 1 mM TCEP, 1% glycerol (Fig. 1H)
[3] = biological target: PKD1 ubiquitin-like dimerization domain (PKD1^ULD) (human); experiment: SEC; analytical size exclusion chromatography of purified proteins (Fig. 1C); elution volumes calibrated to monomer and dimer masses by SEC-MALS
[4] = biological target: ULD-PKD1^KD chimera with (Gly)5 linker (human)
[5] = biological target: ULD-PKD1^KD chimera with (Gly)10 linker (human)
[6] = biological target: the molecule itself; experiment: SEC; analytical size exclusion chromatography of purified proteins (Fig. 1C); elution volumes calibrated to monomer and dimer masses by SEC-MALS

B1: PKD1^KD S738E (domain or fragment, human, UniProt Q15139 570-890, looked up)
chain: QIQENVDISTVYQIFPDEVLGSGQFGIVYGGKHRKTGRDVAIKIIDKLRFPTKQESQLRNEVAILQNLHHPGVVNLECMFETPERVFVVMEKLHGDMLEMILSSEKGRLPEHITKFLITQILVALRHLHFKNIVHCDLKPENVLLASADPFPQVKLCDFGFARIIGEKEFRRSVVGTPAYLAPEVLRNKGYNRSLDMWSVGVIIYVSLSGTFPFNEDEDIHDQIQNAAFMYPPNPWKEISHEAIDLINNLLQVKMRKRYSVDKTLSHPWLQDYQTWLDLRELECKIGERYITHESDDLRWEKYAGEQGLQYPTHLINPSAS
notes: Protein kinase D1 (PKD1), human, kinase domain construct, residues 570 to 890; also called single glutamate substitution of S738; source: recombinant, purified to homogeneity
binding result [6]: binds

B2: PKD1^KD S742E (domain or fragment, human, UniProt Q15139 570-890, looked up)
chain: B1 chain with E169S, S173E
notes: Protein kinase D1 (PKD1), human, kinase domain construct, residues 570 to 890; also called single glutamate substitution of S742; source: recombinant, purified to homogeneity
binding result [6]: binds

B3: PKD1^KD 2A (S738A/S742A) (domain or fragment, human, UniProt Q15139 570-890, looked up)
chain: B1 chain with E169A, S173A
notes: the sites are S738 and S742; source: recombinant, purified to homogeneity
stoichiometry N [6]: 2

Now from value to molecule:

stoichiometry N [1]: 2 | stoichiometry N [2]: 2
Molecule: PKD1 kinase domain construct, unphosphorylated (PKD1^KD 0P), wild type (from UniProt Q15139 570-890) (domain or fragment)

stoichiometry N [3]: 2
Molecule: PKD1 ubiquitin-like dimerization domain (PKD1^ULD) (domain or fragment)

initial catalytic rate of Syntide-2 phosphorylation at 50 nM, against PKD1^KD alone [4]: 5 fold
Molecule: ULD-PKD1^KD chimera with (Gly)5 linker

initial catalytic rate of Syntide-2 phosphorylation at 50 nM, against PKD1^KD alone [5]: 5 fold
Molecule: ULD-PKD1^KD chimera with (Gly)10 linker
